Measurements reported in publication PMC6540616.
Blank lines part the entries; values can stand above or below the substance they belong to.

Tests used:
Assay in all cases: DHFR protein complementation assay (yeast growth)
Details in all cases: MTX-containing media relative to MTX-free media; read off a plot
[1] = target: caskin1 SAM fused to DHFR F3 (UniProt Q6P9K8)
[2] = target: PTPσ full-length (FL) fused to DHFR F1-2, wild type
[3] = target: trio IgPSK fused to DHFR F3

Sequence of UniProt Q6P9K8 (Q6P9K8 344-636): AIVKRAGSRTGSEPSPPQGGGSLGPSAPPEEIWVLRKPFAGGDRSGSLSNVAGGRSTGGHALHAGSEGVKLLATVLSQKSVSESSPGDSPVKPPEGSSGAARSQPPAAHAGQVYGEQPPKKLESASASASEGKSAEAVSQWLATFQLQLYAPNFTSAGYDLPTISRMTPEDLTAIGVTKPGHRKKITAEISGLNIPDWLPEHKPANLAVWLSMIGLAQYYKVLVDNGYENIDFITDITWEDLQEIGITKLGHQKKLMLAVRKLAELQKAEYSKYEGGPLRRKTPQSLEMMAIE

- other: interaction score [1]: -0.11
Substance: PTPσ full-length (FL) fused to DHFR F1-2, wild type EGFID

- other: interaction score [2]: 0.8
Substance: PTPσ full-length (FL) fused to DHFR F1-2, wild type QFG

- other: interaction score [3]: 0.93
Substance: PTPσ intracellular region (ICR) fused to DHFR F1-2, wild type EGFID
